Experimental data taken from article PMC6101581.
Where two headings read alike, the source gives them in different places.

Legend:
hUNG2 full-length [1] = molecular target: T1, hUNG2 full-length (human, UniProt P13051 1-313); assay: fluorescence anisotropy
RPA heterotrimer [2] = molecular target: T2, RPA heterotrimer (UniProt P27694;P15927;P35244 1-616;1-270;1-121); assay: EMSA
RPA heterotrimer [3] = molecular target: T2, RPA heterotrimer; assay: EMSA; remark: listed apart in the source
hUNG2 full-length [4] = molecular target: T1, hUNG2 full-length; assay: fluorescence anisotropy; remark: listed apart in the source
hUNG2 catalytic domain = hUNG2 catalytic domain (human, UniProt P13051 92-313); assay: fluorescence anisotropy
hUNG2 catalytic domain, sequence (P13051 92-313): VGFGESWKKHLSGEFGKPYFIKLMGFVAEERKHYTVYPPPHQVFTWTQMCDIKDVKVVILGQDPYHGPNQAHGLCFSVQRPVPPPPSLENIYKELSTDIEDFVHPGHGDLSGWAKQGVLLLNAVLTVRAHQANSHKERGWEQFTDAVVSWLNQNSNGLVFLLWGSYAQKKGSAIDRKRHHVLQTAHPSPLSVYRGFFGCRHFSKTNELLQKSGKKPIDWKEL

T2 sequence (P27694 whole entry, chain 1 of 3): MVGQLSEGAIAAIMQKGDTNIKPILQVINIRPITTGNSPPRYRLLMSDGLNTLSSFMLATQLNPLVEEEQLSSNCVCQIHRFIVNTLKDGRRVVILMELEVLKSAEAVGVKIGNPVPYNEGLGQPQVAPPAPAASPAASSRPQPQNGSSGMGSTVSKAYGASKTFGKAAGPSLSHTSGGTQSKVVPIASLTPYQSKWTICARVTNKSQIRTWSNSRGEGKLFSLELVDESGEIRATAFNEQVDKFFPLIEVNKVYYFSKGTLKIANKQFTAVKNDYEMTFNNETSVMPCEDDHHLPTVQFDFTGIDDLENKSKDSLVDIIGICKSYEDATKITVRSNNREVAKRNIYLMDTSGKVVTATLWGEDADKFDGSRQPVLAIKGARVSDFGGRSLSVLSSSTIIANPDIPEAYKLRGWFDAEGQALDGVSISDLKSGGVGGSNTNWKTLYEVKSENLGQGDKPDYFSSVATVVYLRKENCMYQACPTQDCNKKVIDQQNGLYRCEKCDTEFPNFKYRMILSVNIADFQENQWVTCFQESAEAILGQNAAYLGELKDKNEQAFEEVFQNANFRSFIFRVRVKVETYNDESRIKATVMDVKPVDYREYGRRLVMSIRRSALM
T2 sequence (P15927 whole entry, chain 2 of 3): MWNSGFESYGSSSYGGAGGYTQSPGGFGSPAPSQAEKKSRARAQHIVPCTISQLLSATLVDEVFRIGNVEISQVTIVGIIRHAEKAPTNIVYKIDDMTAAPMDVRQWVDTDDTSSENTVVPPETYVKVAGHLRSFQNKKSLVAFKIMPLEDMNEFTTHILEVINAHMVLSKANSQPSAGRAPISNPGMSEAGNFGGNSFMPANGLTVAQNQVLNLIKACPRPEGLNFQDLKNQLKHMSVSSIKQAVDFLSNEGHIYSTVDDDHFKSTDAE
T2 sequence (P35244 whole entry, chain 3 of 3): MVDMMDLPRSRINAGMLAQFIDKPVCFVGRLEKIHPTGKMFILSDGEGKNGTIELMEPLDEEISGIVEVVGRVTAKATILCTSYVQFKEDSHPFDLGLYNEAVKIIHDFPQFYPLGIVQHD
T1 sequence (P13051 whole entry): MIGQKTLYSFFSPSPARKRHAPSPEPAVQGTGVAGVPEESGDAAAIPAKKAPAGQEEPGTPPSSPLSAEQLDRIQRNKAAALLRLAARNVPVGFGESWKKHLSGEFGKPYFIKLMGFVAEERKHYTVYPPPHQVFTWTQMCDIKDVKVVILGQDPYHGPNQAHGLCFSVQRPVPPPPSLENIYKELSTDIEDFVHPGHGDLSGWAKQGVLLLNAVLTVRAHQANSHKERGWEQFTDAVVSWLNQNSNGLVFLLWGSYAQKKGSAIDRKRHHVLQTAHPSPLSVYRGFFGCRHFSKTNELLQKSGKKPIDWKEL

B1: 29 bp duplex with 29 nt 5' ssDNA overhang (oligos 15/16) (mixed)
DNA 1: CACGCGTGGCCCGGCAGTTATCCAGCACCACTTAGCTATCGATTCCCGCATGCTCTGA
DNA 2: TCAGAGCATGCGGGAATCGATAGCTAAGT
hUNG2 full-length [1]
  binding result: binds

B2: 55 bp duplex U9/U33 with 32 nt 3' overhang (oligos 18/19) (mixed)
DNA 1: ACTGATCAGAGTCCACTTAGCTATCGATTCTCGTACGCCCTTAGCTATCGATTCACTGGTTATACCTCACTACCACAGGTCGAGCTA
DNA 2: TGAATCGAUAGCTAAGGGCGTACGAGAATCGAUAGCTAAGTGGACTCTGATCAGT
modifications: two deoxyuridines in strand 2
RPA heterotrimer [2]
  binding result: binds

B3: 55 bp duplex U21/U45 with 32 nt 5' overhang (oligos 4/5) (mixed)
DNA 1: ATCGAGCTGGACACCATCACTCCATATTGGTCACTGCATGCTCTTCTTAGCTATCGATTCACCTGAGACCTTAGCTATCGATTCTCA
DNA 2: TGAGAATCGAUAGCTAAGGTCTCAGGTGAATCGAUAGCTAAGAAGAGCATGCAGT
modifications: two deoxyuridines in strand 2
RPA heterotrimer [3]
  binding result: binds

## CACGCGTGGCCCGGCAGTTATCCAGCACC (ssDNA) [29 nt ssDNA (oligo 14)]
hUNG2 full-length [4]
  binding signal: 3 fold higher affinity than N1 (29 bp dsDNA)

B4: 55 bp duplex U9/U33 with 32 nt 5' overhang (oligos 9/10) (mixed)
DNA 1: ATCGAGCTGGACACCATCACTCCATATTGGTCACTTAGCTATCGATTCCCGCATGCTCTTAGCTATCGATTCACCTGAGACTAGTCA
DNA 2: TGACTAGTCTCAGGTGAATCGAUAGCTAAGAGCATGCGGGAATCGAUAGCTAAGT
modifications: two deoxyuridines in strand 2
RPA heterotrimer [3]
  binding result: binds

B5: 29 bp duplex (oligos 13/14) (dsDNA)
DNA 1: GGTGCTGGATAACTGCCGGGCCACGCGTG
DNA 2: CACGCGTGGCCCGGCAGTTATCCAGCACC
hUNG2 catalytic domain
  binding signal: 3 fold lower affinity than full-length hUNG2
